In publication PMC7613929 (Nature microbiology, 2022):
Where “and” joins values, the source holds several entries; their conditions need not be identical. Equal values may be shown once. Ends that are not written are not given here.

Experiments:
[1] = system: FtsA cysteine mutant E. coli strains; experiment: In vivo cysteine cross-linking, Western blot; type: cell-based, Escherichia coli; details: Western blot against 3x HA-tag
Description: Strains were grown to exponential phase (OD600 = 0.2-0.4) in LB from overnight cultures, and 0.9375 OD units harvested using centrifugation at 4°C. Cells were kept on ice for the duration of the experiment, unless stated otherwise. Cells were washed in 500 μl PBS and resuspended in 50 μl PBS. 1.25 μl DMSO or cross-linker (dBBr: Dibromobimane, BMOE: Bismaleimidoethane, BMB: 1,4-bismaleimidobutane or BMH: Bismaleimidohexane) in DMSO (20 mM stock) were added. Samples were incubated for 10 min and quenched by adding 1 μl 2-ME (1.43 M stock in MPW). Cells were resuspended in 50 μl lysis buffer [1 mM EDTA (pH 7.4), 14.3 mM 2-ME, cOmplete EDTA-free Protease Inhibitor Cocktail (Roche), 0.25 U/μl Benzonase (Merck) and 0.5 U/μl ReadyLyse Lysozyme (Lucigen) in B-PER (ThermoFisher)]. Samples were incubated at RT for 5 min. 50 μl of 2x SDS sample loading buffer supplemented with 3 % v/v 2-ME were added. Samples were incubated at 95°C for 5 min, and the equivalent of 0.1875 OD units of cells was analysed by SDS-PAGE. Western blotting was performed using a Trans-Blot turbo (BioRad) with the corresponding Midi 0.2 μm PVDF transfer pack. Blots were run at 25 V and 2.5 A for 7 min. Membranes were blocked in PBS + 5 % milk for 30-40 min, washed in PBS and incubated with anti-HA-Peroxidase antibody (Roche 12013819001) (1/1000 in PBST + 5 % milk) at RT for 1-1.5h. Membranes were washed thoroughly with PBST, developed using the ECL Prime Western blotting detection kit (Amersham/Cytiva) and imaged on a Gel DocTM XR+ (Bio-Rad). Presented images were contrast-adjusted for display purposes.

FtsA = target: T1, FtsA (Escherichia coli, UniProt P0ABH0); experiment: SPR, EcFtsN^1-32 truncations and mutations binding to immobilised FtsA; details: SPR equilibrium response; peptide 1:2 dilution series from 20 μM; mean ± SEM (n ≥ 2 for each construct); asterisk: maximum response fixed during fitting, approximate values; ND: not determinable; read-out: SPR K^eqd
T1 construct: made in house; host or cells: E. coli C41(DE3)
Description: SPR was performed using a Biacore T200 using CM5-sensor chips (Cytiva). Reference control and analyte channels were equilibrated in binding buffer. […] After reference and buffer signal correction, sensogram data were fitted using Prism 8.0 (GraphPad). Equilibrium response (Req) data were fitted to a single-site interaction model to determine Kd: (1) Req=(CRmax/C+Kd)+B, where C is the analyte concentration and Rmax is the maximum response at saturation and B is the background resonance.

[2] = target: VmFtsN^1-29-C-Atto 495 (Vibrio maritimus); experiment: fluorescence polarisation; C-terminally truncated FtsA titrated (1:2 dilution series) into 20 nM Atto 495-labelled FtsN peptide; binding buffer with 0.05 % v/v Tween-20, RT; two-step model
[3] = target: Vibrio maritimus FtsA residues 1-396 (VmFtsA^1-396) (Vibrio maritimus); experiment: crystal structure; co-crystallisation of VmFtsA^1-396 at 3 mg/ml with 2 mM ATP and 0.353 mM VmFtsN^1-29; crystallisation at pH 8.5
[4] = target: Vibrio maritimus FtsA residues 1-396 (VmFtsA^1-396) (Vibrio maritimus); experiment: SPR; Biacore T200, FtsA immobilised on CM5 chip by amide coupling (2000-7800 RU), FtsN peptides injected 120 s in 1:2 dilution series; binding buffer (50 mM HEPES/KOH, 100 mM KAc, 5 mM MgAc2, pH 7.7); equilibrium response fitted to a single-site model
[5] = target: T2, Vibrio maritimus FtsA residues 1-396 (VmFtsA^1-396) (Vibrio maritimus); experiment: AUC; two-step model, second transition (polymerisation)
T2 chain: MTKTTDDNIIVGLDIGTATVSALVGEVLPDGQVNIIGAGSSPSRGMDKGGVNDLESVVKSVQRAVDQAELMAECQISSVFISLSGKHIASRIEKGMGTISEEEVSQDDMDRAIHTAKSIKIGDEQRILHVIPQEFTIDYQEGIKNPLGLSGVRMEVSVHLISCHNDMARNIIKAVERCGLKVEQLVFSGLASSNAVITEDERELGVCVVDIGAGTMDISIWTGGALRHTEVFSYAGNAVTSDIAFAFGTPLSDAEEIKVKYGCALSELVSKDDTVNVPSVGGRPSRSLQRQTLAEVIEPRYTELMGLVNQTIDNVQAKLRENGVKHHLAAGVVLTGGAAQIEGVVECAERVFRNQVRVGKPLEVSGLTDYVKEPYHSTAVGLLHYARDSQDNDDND

[6] = target: T2, Vibrio maritimus FtsA residues 1-396 …; experiment: FP; two-step model, second transition (polymerisation)
[7] = target: T2, Vibrio maritimus FtsA residues 1-396 …; experiment: FP; two-step model, first transition (FtsN binding)
[8] = target: T2, Vibrio maritimus FtsA residues 1-396 …; experiment: AUC; two-step model, first transition (FtsN binding)
[9] = target: the molecule itself; experiment: co-sedimentation; co-pelleting: truncated FtsA at 1 mg/ml (~23 μM) with half, 1-, 3-, 6- or 10-fold molar FtsN peptide in binding buffer, 20°C, 20,000x g for 10 min, SDS-PAGE of supernatant and pellet
[10] = target: the molecule itself; experiment: cryo-EM with 2D classification; EcFtsA at 0.15 mg/ml with 1 mM ATP on lipid monolayer, without FtsN peptide
[11] = ftsA^3x HA, Q155C mutant, exponential phase cells in PBS on ice, 10 min

## O=C1C=CC(=O)N1CCCCN1C(=O)C=CC1=O [BMB, 1,4-bismaleimidobutane]
[1]; [11]
  Covalent FtsA dimer after in vivo cross-linking, in words: FtsA dimers can be detected

## O=C1C=CC(=O)N1CCCCCCN1C(=O)C=CC1=O [BMH, bismaleimidohexane]
[1]; [11]
  Covalent FtsA dimer after in vivo cross-linking, in words: FtsA dimers can be detected

## O=C1C=CC(=O)N1CCN1C(=O)C=CC1=O [BMOE, bismaleimidoethane]
[1]; double cysteine mutants ftsA^3x HA, P98C, S118C and ftsA^3x HA, E199C, S252C
  Covalent FtsA dimer after in vivo cross-linking, in words: Signal for covalent FtsA dimers can be detected for both double cysteine mutants
[1]; [11]
  Covalent FtsA dimer after in vivo cross-linking, in words: but not with BMOE

## Cc1c(CBr)n2c(CBr)c(C)c(=O)n2c1=O [dBBr, dibromobimane]
[1]; ftsA^3x HA, D123C mutant, exponential phase cells in PBS on ice, 10 min
  Covalent FtsA dimer after in vivo cross-linking, in words: Signal for a FtsA dimer can be detected

## MAQRDYVRRSQPAPSAASASTSRKKQRNLPAV [EcFtsN^1-32, ΔRK2]
FtsA
  Kd: ~166 µM

## MAQRDYVRRSQPAPSRRKKSTSASAQRNLPAV [EcFtsN^1-32, ΔRK3]
FtsA
  Kd: ~80.6 µM

## Vibrio maritimus FtsA residues 1-396 (VmFtsA^1-396) (domain or fragment)
[2]
  fold weaker for the first binding event than EcFtsA^1-405 with FtsN^(1-32-C-Atto 495): 4 fold
[3]
  stoichiometry N: 4

## Vibrio maritimus FtsN cytoplasmic peptide, residues 1-29 (VmFtsN^1-29)
[4]
  fold weaker than the EcFtsA^1-405-EcFtsN^1-32 interaction: 3 fold

## MANRDYVRRGKGTSRRPAKKKTSGKKPWRC (Atto 495 (maleimide) on the added C-terminal cysteine) [VmFtsN^1-29-C-Atto 495]
[5]
  Kd: 55 µM
[6]
  Kd: 10 µM
[7]
  Kd: 0.062 µM
[8]
  Kd: 0.018 µM

B1: E. coli FtsA residues 1-405 (EcFtsA^1-405) (domain or fragment, UniProt P0ABH0 1-405, looked up)
chain: MIKATDRKLVVGLEIGTAKVAALVGEVLPDGMVNIIGVGSCPSRGMDKGGVNDLESVVKCVQRAIDQAELMADCQISSVYLALSGKHISCQNEIGMVPISEEEVTQEDVENVVHTAKSVRVRDEHRVLHVIPQEYAIDYQEGIKNPVGLSGVRMQAKVHLITCHNDMAKNIVKAVERCGLKVDQLIFAGLASSYSVLTEDERELGVCVVDIGGGTMDIAVYTGGALRHTKVIPYAGNVVTSDIAYAFGTPPSDAEAIKVRHGCALGSIVGKDESVEVPSVGGRPPRSLQRQTLAEVIEPRYTELLNLVNEEILQLQEKLRQQGVKHHLAAGIVLTGGAAQIEGLAACAQRVFHTQVRIGAPLNITGLTDYAQEPYYSTAVGLLHYGKESHLNGEAEVEKRVTASV
notes: also called C-terminally truncated FtsA; source: E. coli C41(DE3), purified (HisTrap, SUMO cleavage with GST-SENP1, SEC); not shown: 6H-SUMO, N-terminal, cleaved
[9]
  binding result: binds

B2: E. coli FtsA (EcFtsA), full length (natural protein, UniProt P0ABH0 1-420, looked up)
chain: MIKATDRKLVVGLEIGTAKVAALVGEVLPDGMVNIIGVGSCPSRGMDKGGVNDLESVVKCVQRAIDQAELMADCQISSVYLALSGKHISCQNEIGMVPISEEEVTQEDVENVVHTAKSVRVRDEHRVLHVIPQEYAIDYQEGIKNPVGLSGVRMQAKVHLITCHNDMAKNIVKAVERCGLKVDQLIFAGLASSYSVLTEDERELGVCVVDIGGGTMDIAVYTGGALRHTKVIPYAGNVVTSDIAYAFGTPPSDAEAIKVRHGCALGSIVGKDESVEVPSVGGRPPRSLQRQTLAEVIEPRYTELLNLVNEEILQLQEKLRQQGVKHHLAAGIVLTGGAAQIEGLAACAQRVFHTQVRIGAPLNITGLTDYAQEPYYSTAVGLLHYGKESHLNGEAEVEKRVTASVGSWIKRLNSWLRKEF
notes: FtsA, E. coli, full length; also called WT; source: E. coli C41(DE3), purified (HisTrap, chitin resin with intein cleavage, SEC); not shown: intein-CBD-12H, C-terminal, cleaved
[10]
  stoichiometry N: 13 and 12
